Experimental data as given in publication PMC2891831, “Insight into the Mechanisms of Adenovirus Capsid Disassembly from Studies of Defensin Neutralization” (PLoS Pathogens, 2010).
Entries after “also recorded” stand apart in the source; their conditions may differ.

Experiments:
HAdV species A = assay: Infection assay (hexon staining), HAdV species A; type: cell-based, human adenovirus; conditions: 15 µM HD5, A549 cells, hexon staining at ~48 h, vs. no defensin, at least three independent experiments
Protocol: (§1) To determine whether sensitivity to α-defensins is a general property of HAdVs, serotypes representative of HAdV species A–F were tested for infectivity in the presence of 15 µM HD5 or HNP1 (Figure 1). Wild type HAdVs rather than vectors were used for these studies, and infectivity was assessed by staining for hexon production. […] These studies indicate that sensitivity to α-defensins is species specific. In addition, particular HAdV serotypes are not equally sensitive to all defensins, indicating defensin sequence specificity as well.
(§2) Figure 1 Sensitivity to neutralization by alpha-defensins is AdV species specific. HAdVs were incubated with 15 µM HD5 (A) or HNP1 (B) and assessed for infectivity on A549 cells. Data are the mean of the percent infectivity compared to control cells infected with each virus in the absence of defensin for at least three independent experiments ± SD. The upper limit for quantification of this assay is 200%. […]
(§3) Prior to use in this assay, each virus stock was titrated on A549 cells. […] In parallel, wells were infected with two-fold serial dilutions of each virus to establish a standard curve for quantification with an upper limit of 200%. […] Total well fluorescence above background was quantified with ImageJ software. For each virus, samples were quantified by nonlinear regression against the standard curve using Prism software (GraphPad Software, Inc., La Jolla, CA).

[1] = system: Ad5.F35 capsid (hexon, penton base, fiber); assay: CryoEM difference map analysis of Ad5.F35+HD5; type: binding, human adenovirus; conditions: 20 µM HD5, 160 µg/ml Ad5.F35, cryoEM difference map, 12 Å resolution
Protocol: To obtain structural insight into the mechanism of α-defensin-mediated neutralization of HAdV infection, we studied a complex of Ad5.F35 (Ad35F) and HD5 by cryoelectron microscopy (cryoEM). This chimeric virus construct was chosen because of its short fiber and the availability of a cryoEM structure of Ad5.F35 in the absence of defensin for comparison, [31]. […] Ad5.F35 was incubated with a saturating concentration of HD5 (20 µM) then applied to grids and flash frozen for cryoEM. A dataset of 2,611 cryoEM particle images of the Ad5.F35+HD5 complex was collected and processed as performed earlier for Ad5.F35 [31]. The resolution of the icosahedral portion of the Ad5.F35+HD5 reconstruction is estimated as 12 Å by the FSC 0.5 threshold criterion, compared to 6.9 Å for the Ad5.F35 reconstruction. Both cryoEM structures are shown filtered to 12 Å resolution in Figure 4A. The most noticeable difference between the two structures is the presence of more density on top of penton base and around the fiber shaft in the Ad5.F35+HD5 structure. In addition, while the fiber knob is visible in the Ad5.F35 structure, it is only weakly reconstructed in the Ad5.F35+HD5 structure (Figure 4A inset). […]

GYAR virus = assay: Infection assay, GYAR virus; type: cell-based, human adenovirus; conditions: 5 µM HD5, A549 cells, at least three independent experiments
Protocol: Figure 6 Neutralization determinants are located in fiber and penton base. A) Schematic of chimeric viruses. Capsid proteins are depicted in the order in which they are encoded in the virus genome for HAdV-5 (white) and HAdV-19c (grey). The variable residues in fiber (GYAR and DTET) are indicated for each construct. B) Each of the chimeric viruses was incubated with 5 µM (grey) or 10 µM (black) HD5 and assessed for infectivity on A549 cells. Data are the mean of the percent infectivity compared to control cells infected with each virus in the absence of defensin for at least three independent experiments ± SD. The upper limit for quantification of this assay is 200%.
We then combined the GYAR substitution with the PB substitution in a single construct (PB/GYAR).
as §3, with “cells. A virus concentration was chosen to produce 50–70% maximal signal in the absence of defensin as described below.” for “cells.”

HAdV-41 = assay: Infection assay (hexon staining), HAdV-41; type: cell-based, human adenovirus; conditions: 15 µM HD5, A549 cells
Protocol: as §1, §2, §3

B1: HD5: human alpha-defensin; synthetic, obtained from Peptides International; three disulfide bonds (PDB 1ZMP) (peptide, UniProt Q01523 20-94, looked up)
Defensin alpha 5: ESLQERADEATTQKQSGEDNQDLAISFAGNGLSALRTSGSQARATCYCRTGRCATRESLSGVCEISGRLYRLCCR
modifications: Defensin-5
- sensitivity to neutralization (infectivity) (HAdV species A): sensitive
- HD5 binding regions on capsid [1]: HD5 difference density is also found within the central depression of the hexon trimers; also recorded: multiple binding sites for HD5 on the penton complex (penton base and fiber); also recorded: interacts with the exposed surfaces of the three major capsid proteins: hexon, penton base, and fiber; also recorded: extensive binding of HD5 to the fiber
- sensitivity to HD5 neutralization compared to HAdV-5 (GYAR virus): less sensitive
- sensitivity to HD5 (HAdV-41): resistant
